Tests used:
human Cathepsin K = target: T1, human Cathepsin K (Homo sapiens, UniProt P43235); experiment: Cathepsin K assay, hydrolysis of conjugates by human Cathepsin K; assay type: biochemical; conditions: conjugate 100 uM, CatK 0.2 uM, pH 5.5, 37 C
T1 construct: purchased Sigma-Aldrich; host or cells: E. coli
T1 sequence (P43235 115-329): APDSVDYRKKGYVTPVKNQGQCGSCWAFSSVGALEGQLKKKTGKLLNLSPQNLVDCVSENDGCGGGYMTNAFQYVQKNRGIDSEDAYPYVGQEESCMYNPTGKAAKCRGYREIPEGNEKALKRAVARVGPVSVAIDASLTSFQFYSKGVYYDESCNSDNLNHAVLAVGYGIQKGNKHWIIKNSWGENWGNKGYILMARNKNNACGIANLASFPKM
Description: (§1) Cathepsin K rat (recombinant, expressed in E. coli) was obtained from Merck as a gift. […] Enzyme activity was assayed using the Cathepsin K standard substrate Z-Leu-Arg-AMC. […] The appearances of released self-immolative linker 4-aminobenyl alcohol were recorded.

rat Cathepsin K = target: T2, rat Cathepsin K (Rattus norvegicus, UniProt O35186); experiment: Cathepsin K assay, hydrolysis of conjugates by rat Cathepsin K; assay type: biochemical; conditions: conjugate 100 uM, CatK 0.2 uM, pH 5.5, 37 C
T2 construct: Merck (gift); host or cells: E. coli
T2 sequence (O35186 115-329): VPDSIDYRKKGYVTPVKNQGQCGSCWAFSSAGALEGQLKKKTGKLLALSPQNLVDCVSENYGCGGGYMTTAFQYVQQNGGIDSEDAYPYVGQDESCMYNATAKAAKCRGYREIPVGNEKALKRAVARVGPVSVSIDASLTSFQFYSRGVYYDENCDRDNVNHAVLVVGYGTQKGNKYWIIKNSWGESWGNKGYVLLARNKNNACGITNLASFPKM
Description: as §1

[1] = Analysis of the blood samples, level of tritiated 17a in blood; assay type: in vivo; conditions: rat, tail vein bolus, [3H]-17a
Description: (§2) Female Sprague Dawley rats (Charles River) were about 13 weeks old when received. They were acclimatized to the facility and operators, and were randomly divided to five groups: 6 hour, 1-, 7, 14 and -28 day. Dose: [^3H]-17a: 8.90 μCi/rat, [^14C]-17a 1.77 uCi/rat, and 17a 5.0 mg/kg. Formulation: conjugate 17a was suspended in Poloxamer 188 solution 10%, and adjusted to pH 8.0 by NaHCO3, then diluted by equal volume of PBS. The dosing was done with a fixed volume of 500 μL. The bolus injection and blood sampling were done via the tail vein. […] Long bones were harvested and counted.
Three Female Sprague Dawley rats (Charles River) were about 23 weeks old when received. They were acclimatized to the facility and operators. Dose: [^3H]-17a: 31.0 μCi/rat. Blood samples (0.5 mL per time point per rat) were taken from the 6-hour group of rats 0.5, 1, 2, 4, 6 hour and placed in heparinized micro-centrifuge tubes. Blood samples from the (500 μL) were centrifuged at ˜5000×G until plasma had separated. 100 μL of the supernatant was analyzed in a Harvey OX-300 biological oxidizer using the four-minute program. The collected scintillation mixture was counted on a Beckman Coulter LS-6500 scintillation counter. The counting time was two minute.

[2] = Rat organ distribution, uptake and release of conjugate 17a in rat bone; assay type: in vivo
Description: as §2
After 6 h, 1, 7, 14, 28 days three animals were weighed, sacrificed by CO2 and blood, fat, muscle, brain, heart, kidney, spleen, liver and bone were dissected and cleaned free of any loose tissue. The amount of radioactivity was determined by incineration in a R. J. Harvey OX300 Biological Oxidizer. The percent of the compound retained in the skeleton and the other organs at each time point was calculated by measuring activity per gram (μCi/g) in the collected samples and extrapolating to total activity retained in the skeleton and the other organs, the weight of skeleton was calculated by 8% of the body weight, the weight of the other organs was measured by balance. […] Table 3 and FIGS. 7A-E show rat organ distribution, uptake and release of a representative conjugate compound 17a.

N=C(N)NCCC[C@H](NC(=O)[C@@H]1CCCN1C(=O)CNC(=O)OCc1ccccc1)C(=O)Nc1ccc(COC(=O)NCCCC(O)(P(=O)(O)O)P(=O)(O)O)cc1 [Compound 8, (4-((((4-((S)-2-((S)-1-(((benzyloxy)carbonyl)glycyl)pyrrolidine-2-carboxamido)-5-guanidinopentanamido)benzyl)oxy)carbonyl)amino)-1-hydroxybutane-1,1-diyl)bis(phosphonic acid)]
hydrolysis by Hum CatK (human Cathepsin K; 1 hour): 91% | hydrolysis by Hum CatK (human Cathepsin K; 2 hour): 100% | hydrolysis by Rat CatK (rat Cathepsin K; 1 hour): 11% | hydrolysis by Rat CatK (rat Cathepsin K; 2 hour): 20% | hydrolysis by Rat CatK (rat Cathepsin K; 20 hour): 80%

CC(C)C[C@H](NC(=O)OCc1ccccc1)C(=O)N[C@@H](CCCNC(=N)N)C(=O)Nc1ccc(COC(=O)NCCCC(O)(P(=O)(O)O)P(=O)(O)O)cc1 [Compound 7]
hydrolysis by Hum CatK (human Cathepsin K; 1 hour): 66% | hydrolysis by Hum CatK (human Cathepsin K; 2 hour): 75% | hydrolysis by Hum CatK (human Cathepsin K; 3 hour): 79 (3 hour) % | hydrolysis by Rat CatK (rat Cathepsin K; 1 hour): 73% | hydrolysis by Rat CatK (rat Cathepsin K; 2 hour): 80% | hydrolysis by Rat CatK (rat Cathepsin K; 20 hour): 95%

N=C(N)NCCC[C@H](NC(=O)[C@@H]1CCCN1C(=O)OCc1ccccc1)C(=O)Nc1ccc(COC(=O)NCCCC(O)(P(=O)(O)O)P(=O)(O)O)cc1 [Compound 6, (4-((((4-((S)-2-((S)-1-((benzyloxy)carbonyl)pyrrolidine-2-carboxamido)-5-guanidinopentanamido)benzyl)oxy)carbonyl)amino)-1-hydroxybutane-1,1-diyl)bis(phosphonic acid)]
hydrolysis by Hum CatK (human Cathepsin K; 1 hour): 90% | hydrolysis by Hum CatK (human Cathepsin K; 2 hour): 98% | hydrolysis by Rat CatK (rat Cathepsin K; 1 hour): 5% | hydrolysis by Rat CatK (rat Cathepsin K; 2 hour): 10% | hydrolysis by Rat CatK (rat Cathepsin K; 20 hour): 52%

CCOC(=O)CCCCCCN1C(=O)CC[C@@H]1/C=C/[C@@H](OC(=O)Cc1ccc(COC(=O)N[C@@H](CC(C)C)C(=O)N[C@@H](CCCNC(=N)N)C(=O)Nc2ccc(COC(=O)NCCCC(O)(P(=O)(O)O)P(=O)(O)O)cc2)cc1)C(F)(F)c1ccccc1 [Compound 17a, (4-((((4-((S)-2-((S)-2-((((4-(2-(((R,E)-4-((R)-1-(7-ethoxy-7-oxoheptyl)-5-oxopyrrolidin-2-yl)-1,1-difluoro-1-phenylbut-3-en-2-yl)oxy)-2-oxoethyl)benzyl)oxy)carbonyl)amino)-4-methylpentanamido)-5-guanidinopentanamido)benzyl)oxy)carbonyl)amino)-1-hydroxybutane-1,1-diyl)bis(phosphonic acid)]
clearance from circulating blood, t1/2 [1]: ~30 min | behavior or reaction of dosed animals ([2]; 17a 5.0 mg/kg, tail vein bolus): no unusual behavior or reaction to the drug treatment | distribution of radio-activity ([2]; at 6 hours): most radio-activity was observed in liver and bones | uptake ([2]; by 3H): 2% | uptake ([2]; by 14C): ~5% | distribution of radio-activity ([2]; by 7 days): only bones had a significant amount of radio-activity | Percentage of dose in Bone ([2]; tail vein bolus, 3H, 1-day): 2.12% | Percentage of dose in Brain ([2]; tail vein bolus, 3H, 1-day): 0.025% | Percentage of dose in Heart ([2]; tail vein bolus, 3H, 1-day): 0.021% | Percentage of dose in Kidney ([2]; tail vein bolus, 3H, 1-day): 0.11% | Percentage of dose in Liver ([2]; tail vein bolus, 3H, 1-day): 2.33% | Percentage of dose in Spleen ([2]; tail vein bolus, 3H, 1-day): 0.22% | Percentage of dose in Bone ([2]; tail vein bolus, 3H, 6-hour): 2.10% | Percentage of dose in Brain ([2]; tail vein bolus, 3H, 6-hour): 0.022% | Percentage of dose in Heart ([2]; tail vein bolus, 3H, 6-hour): 0.025% | Percentage of dose in Kidney ([2]; tail vein bolus, 3H, 6-hour): 0.21% | Percentage of dose in Liver ([2]; tail vein bolus, 3H, 6-hour): 8.95% | Percentage of dose in Spleen ([2]; tail vein bolus, 3H, 6-hour): 0.35% | Percentage of dose in Bone ([2]; tail vein bolus, 3H, 7-day): 1.30% | Percentage of dose in Brain ([2]; tail vein bolus, 3H, 7-day): LOD | Percentage of dose in Heart ([2]; tail vein bolus, 3H, 7-day): 0.014% | Percentage of dose in Kidney ([2]; tail vein bolus, 3H, 7-day): 0.053% | Percentage of dose in Liver ([2]; tail vein bolus, 3H, 7-day): 0.48% | Percentage of dose in Spleen ([2]; tail vein bolus, 3H, 7-day): 0.076% | Percentage of dose in Bone ([2]; tail vein bolus, 3H, 14-day): 0.80% | Percentage of dose in Brain ([2]; tail vein bolus, 3H, 14-day): LOD | Percentage of dose in Heart ([2]; tail vein bolus, 3H, 14-day): LOD | Percentage of dose in Kidney ([2]; tail vein bolus, 3H, 14-day): 0.026% | Percentage of dose in Liver ([2]; tail vein bolus, 3H, 14-day): 0.30% | Percentage of dose in Spleen ([2]; tail vein bolus, 3H, 14-day): 0.039% | Percentage of dose in Bone ([2]; tail vein bolus, 3H, 28-day): 0.74% | Percentage of dose in Brain ([2]; tail vein bolus, 3H, 28-day): LOD | Percentage of dose in Heart ([2]; tail vein bolus, 3H, 28-day): LOD | Percentage of dose in Kidney ([2]; tail vein bolus, 3H, 28-day): 0.017% | Percentage of dose in Liver ([2]; tail vein bolus, 3H, 28-day): 0.08% | Percentage of dose in Spleen ([2]; tail vein bolus, 3H, 28-day): 0.037% | Percentage of dose in Bone ([2]; tail vein bolus, 14C, 1-day): 4.63% | Percentage of dose in Brain ([2]; tail vein bolus, 14C, 1-day): 0.012% | Percentage of dose in Heart ([2]; tail vein bolus, 14C, 1-day): 0.009% | Percentage of dose in Kidney ([2]; tail vein bolus, 14C, 1-day): 0.047% | Percentage of dose in Liver ([2]; tail vein bolus, 14C, 1-day): 2.50% | Percentage of dose in Spleen ([2]; tail vein bolus, 14C, 1-day): 0.23% | Percentage of dose in Bone ([2]; tail vein bolus, 14C, 6-hour): 5.52% | Percentage of dose in Brain ([2]; tail vein bolus, 14C, 6-hour): 0.014% | Percentage of dose in Heart ([2]; tail vein bolus, 14C, 6-hour): 0.017% | Percentage of dose in Kidney ([2]; tail vein bolus, 14C, 6-hour): 0.11% | Percentage of dose in Liver ([2]; tail vein bolus, 14C, 6-hour): 7.03% | Percentage of dose in Spleen ([2]; tail vein bolus, 14C, 6-hour): 0.34% | Percentage of dose in Bone ([2]; tail vein bolus, 14C, 7-day): 3.51% | Percentage of dose in Brain ([2]; tail vein bolus, 14C, 7-day): LOD | Percentage of dose in Heart ([2]; tail vein bolus, 14C, 7-day): LOD | Percentage of dose in Kidney ([2]; tail vein bolus, 14C, 7-day): 0.020% | Percentage of dose in Liver ([2]; tail vein bolus, 14C, 7-day): 0.61% | Percentage of dose in Spleen ([2]; tail vein bolus, 14C, 7-day): 0.086% | Percentage of dose in Bone ([2]; tail vein bolus, 14C, 14-day): 2.52% | Percentage of dose in Brain ([2]; tail vein bolus, 14C, 14-day): LOD | Percentage of dose in Heart ([2]; tail vein bolus, 14C, 14-day): LOD | Percentage of dose in Kidney ([2]; tail vein bolus, 14C, 14-day): 0.013% | Percentage of dose in Liver ([2]; tail vein bolus, 14C, 14-day): 0.27% | Percentage of dose in Spleen ([2]; tail vein bolus, 14C, 14-day): 0.050% | Percentage of dose in Bone ([2]; tail vein bolus, 14C, 28-day): 2.44% | Percentage of dose in Brain ([2]; tail vein bolus, 14C, 28-day): LOD | Percentage of dose in Heart ([2]; tail vein bolus, 14C, 28-day): LOD | Percentage of dose in Kidney ([2]; tail vein bolus, 14C, 28-day): 0.0092% | Percentage of dose in Liver ([2]; tail vein bolus, 14C, 28-day): 0.10% | Percentage of dose in Spleen ([2]; tail vein bolus, 14C, 28-day): 0.039%

Source: US9650414B1, “Dual-action EP4 agonist—bisphosphonate conjugates and uses thereof” (Simon Fraser University, priority 2014, dated 2017)
